We go through 94 variants from the supplement of paper PMC10567573.

B1: ADAMTS4 (parent)
chain: SFRKFRYGYNNVVTIPAGATHILV
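Also: lentivirally expressed fusions sorted by FACS into six bins by GFP to DsRed ratio, PSI derived from sequencing read proportions per bin multiplied by bin number.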

In this data set the parent is B1. Nature of the data set: protein stability index of a GFP-peptide fusion (GPS, HEK-293T) (PSI 1-6); higher = more stable. Conditions: c terminus: a fixed tail appended.
In the case of SFRKFRYGYNNVVTIPAGATHWLV, the protein stability index came to 1.83.

On to SFRKFRYGYNNVVTIPAGATHNLV, for which the protein stability index is 1.83.

For SFRKFRYGYNNVVTIPAGATHHLV, the protein stability index was 1.8.

For SFRKFRYGYNNVVTIPAGATHRLV, the protein stability index was found to be 1.88.

For the variant SFRKFRYGYNNVVTIPAGATHVLV, the protein stability index was found to be 1.79.

In the case of SFRKFRYGYNNVVTIPAGATHDLV, the protein stability index was found to be 2.24.

Consider SFRKFRYGYNNVVTIPAGATHQLV, for which the protein stability index worked out at 2.31.

Take SFRKFRYGYNNVVTIPAGATHMLV: the protein stability index worked out at 1.9.

On to SFRKFRYGYNNVVTIPAGATHTLV, for which the protein stability index came out at 1.97.

As to SFRKFRYGYNNVVTIPAGATHLLV, the protein stability index is 2.51.

Consider SFRKFRYGYNNVVTIPAGATHALV, for which the protein stability index was 1.74.

Turning to SFRKFRYGYNNVVTIPAGATHELV, the protein stability index turned out to be 2.53.

On to SFRKFRYGYNNVVTIPAGATHKLV, for which the protein stability index amounted to 2.37.

For the variant SFRKFRYGYNNVVTIPAGATHPLV, the protein stability index is 2.59.

For the variant SFRKFRYGYNNVVTIPAGATHCLV, the protein stability index worked out at 2.42.

Take SFRKFRYGYNNVVTIPAGATHFLV: the protein stability index was found to be 2.58.

As for SFRKFRYGYNNVVTIPAGATHYLV, the protein stability index turned out to be 1.92.

With SFRKFRYGYNNVVTIPAGATHGLV, the protein stability index came out at 1.93.

Consider SFRKFRYGYNNVVTIPAGATHSLV, for which the protein stability index was found to be 2.36.

In the case of SFRKFRYGYNNVVTIPAGATHIFV, the protein stability index came out at 2.76.

For SFRKFRYGYNNVVTIPAGATHIAV, the protein stability index was found to be 2.4.

For SFRKFRYGYNNVVTIPAGATHIWV, the protein stability index was 2.15.

For the variant SFRKFRYGYNNVVTIPAGATHIPV, the protein stability index stood at 2.29.

Regarding SFRKFRYGYNNVVTIPAGATHIVV, the protein stability index came out at 2.

In the case of SFRKFRYGYNNVVTIPAGATHIKV, the protein stability index was found to be 2.

As to SFRKFRYGYNNVVTIPAGATHIGV, the protein stability index is 2.1.

Regarding SFRKFRYGYNNVVTIPAGATHIRV, the protein stability index was found to be 1.84.

Turning to SFRKFRYGYNNVVTIPAGATHIYV, the protein stability index was 2.41.

For the variant SFRKFRYGYNNVVTIPAGATHISV, the protein stability index is 2.52.

As to SFRKFRYGYNNVVTIPAGATHIEV, the protein stability index amounted to 1.32.

With SFRKFRYGYNNVVTIPAGATHIDV, the protein stability index was found to be 1.78.

For SFRKFRYGYNNVVTIPAGATHIMV, the protein stability index is 2.43.

Take SFRKFRYGYNNVVTIPAGATHIIV: the protein stability index amounted to 3.28.

As for SFRKFRYGYNNVVTIPAGATHICV, the protein stability index worked out at 2.19.

For the variant SFRKFRYGYNNVVTIPAGATHITV, the protein stability index was determined as 3.08.

SFRKFRYGYNNVVTIPAGATHIQV: the protein stability index was found to be 1.37.

Take SFRKFRYGYNNVVTIPAGATHINV: the protein stability index was 1.75.

For the variant SFRKFRYGYNNVVTIPAGATHIHV, the protein stability index stood at 2.91.

SFRKFRYGYNNVVTIPAGATHILA: the protein stability index was determined as 1.52.

Turning to SFRKFRYGYNNVVTIPAGATHILP, the protein stability index worked out at 1.64.

Consider SFRKFRYGYNNVVTIPAGATHILK, for which the protein stability index stood at 1.7.

For SFRKFRYGYNNVVTIPAGATHILW, the protein stability index came to 1.94.

For SFRKFRYGYNNVVTIPAGATHILD, the protein stability index amounted to 1.93.

For SFRKFRYGYNNVVTIPAGATHILC, the protein stability index amounted to 2.39.

Regarding SFRKFRYGYNNVVTIPAGATHILS, the protein stability index was determined as 1.68.

As to SFRKFRYGYNNVVTIPAGATHILQ, the protein stability index stood at 1.75.

Take SFRKFRYGYNNVVTIPAGATHILG: the protein stability index was determined as 1.81.

Turning to SFRKFRYGYNNVVTIPAGATHILF, the protein stability index came out at 3.25.

Consider SFRKFRYGYNNVVTIPAGATHILT, for which the protein stability index is 1.44.

Consider SFRKFRYGYNNVVTIPAGATHILL, for which the protein stability index is 2.35.

Turning to SFRKFRYGYNNVVTIPAGATHILR, the protein stability index came out at 1.34.

Turning to SFRKFRYGYNNVVTIPAGATHILY, the protein stability index came to 2.57.

For SFRKFRYGYNNVVTIPAGATHILI, the protein stability index is 2.

For the variant SFRKFRYGYNNVVTIPAGATHILH, the protein stability index is 1.73.

For SFRKFRYGYNNVVTIPAGATHILM, the protein stability index amounted to 2.12.

For SFRKFRYGYNNVVTIPAGATHILE, the protein stability index worked out at 2.34.

Take SFRKFRYGYNNVVTIPAGATHILN: the protein stability index is 1.66.

As to SFRKFRYGYNNVVTIPAGALHILV, the protein stability index is 2.9.

On to SFRKFRYGYNNVVTIPAGAYHILV, for which the protein stability index was determined as 1.69.

Consider SFRKFRYGYNNVVTIPAGAAHILV, for which the protein stability index was found to be 2.32.

Regarding SFRKFRYGYNNVVTIPAGADHILV, the protein stability index is 1.54.

As to SFRKFRYGYNNVVTIPAGAVHILV, the protein stability index came out at 2.55.

Take SFRKFRYGYNNVVTIPAGAKHILV: the protein stability index turned out to be 2.24.

As to SFRKFRYGYNNVVTIPAGAFHILV, the protein stability index worked out at 3.2.

Regarding SFRKFRYGYNNVVTIPAGAWHILV, the protein stability index came to 2.38.

With SFRKFRYGYNNVVTIPAGAGHILV, the protein stability index was found to be 1.49.

As for SFRKFRYGYNNVVTIPAGAMHILV, the protein stability index worked out at 2.51.

With SFRKFRYGYNNVVTIPAGAHHILV, the protein stability index was 1.63.

Turning to SFRKFRYGYNNVVTIPAGAPHILV, the protein stability index came out at 3.21.

Take SFRKFRYGYNNVVTIPAGAIHILV: the protein stability index was 2.77.

Regarding SFRKFRYGYNNVVTIPAGAEHILV, the protein stability index worked out at 2.56.

Turning to SFRKFRYGYNNVVTIPAGAQHILV, the protein stability index worked out at 2.19.

As for SFRKFRYGYNNVVTIPAGANHILV, the protein stability index came out at 1.85.

For SFRKFRYGYNNVVTIPAGACHILV, the protein stability index turned out to be 2.86.

SFRKFRYGYNNVVTIPAGRTHILV: the protein stability index was 2.67.

On to SFRKFRYGYNNVVTIPAGKTHILV, for which the protein stability index is 3.

Take SFRKFRYGYNNVVTIPAGQTHILV: the protein stability index worked out at 1.88.

On to SFRKFRYGYNNVVTIPAGTTHILV, for which the protein stability index was 1.36.

For SFRKFRYGYNNVVTIPAGNTHILV, the protein stability index worked out at 2.17.

For SFRKFRYGYNNVVTIPAGPTHILV, the protein stability index was determined as 2.17.

Regarding SFRKFRYGYNNVVTIPAGLTHILV, the protein stability index was determined as 3.23.

SFRKFRYGYNNVVTIPAGYTHILV: the protein stability index was 3.44.

On to SFRKFRYGYNNVVTIPAGVTHILV, for which the protein stability index came out at 1.84.

SFRKFRYGYNNVVTIPAGHTHILV: the protein stability index turned out to be 1.96.

On to SFRKFRYGYNNVVTIPAGWTHILV, for which the protein stability index came out at 2.72.

As for SFRKFRYGYNNVVTIPAGATKILV, the protein stability index is 2.59.

As to SFRKFRYGYNNVVTIPAGATDILV, the protein stability index stood at 1.66.

For the variant SFRKFRYGYNNVVTIPAGATVILV, the protein stability index came to 2.02.

Turning to SFRKFRYGYNNVVTIPAGATGILV, the protein stability index turned out to be 2.48.

Consider SFRKFRYGYNNVVTIPAGATSILV, for which the protein stability index stood at 2.3.

As to SFRKFRYGYNNVVTIPAGATRILV, the protein stability index was found to be 2.32.

For the variant SFRKFRYGYNNVVTIPAGATQILV, the protein stability index turned out to be 2.85.

For SFRKFRYGYNNVVTIPAGATTILV, the protein stability index came to 3.43.

In the case of SFRKFRYGYNNVVTIPAGATEILV, the protein stability index came out at 3.28.
